The target in assay [1] is His6-PA3027 (Pseudomonas aeruginosa PAO1161) (UniProt Q9HZH9). Nature of the assay: SEC-MALS; 100 uL of 1 mg/mL His6-PA3027 on Superdex 200 Increase 10/300 in Buffer S (20 mM MES pH 6.5, 200 mM (NH4)2SO4, 200 mM NaCl), room temperature, 0.5 mL/min; monomer and dimer. Background: SEC sorts molecules by how far they enter the pores of the column.
Assay [2] has the same target. Nature of the assay: cross-linking; purified His6-PA3027 cross-linked with increasing concentration of glutaraldehyde; Western blot with anti-His antibodies. A general note: Immunoblotting shows a protein as a band on a membrane.

By stoichiometry N is commonly meant the number of molecules, sites or subunits per partner or assembly.

For “His6-PA3027 (from UniProt Q9HZH9 1-343) (natural protein)”, the stoichiometry N in assay [1] and in assay [2] was 2 in each case.

The record behind these values is publication PMC8151288.
